# “And” between values parts separate entries of the source, which are not always exact repeats. Equal entries are not always repeated.
# T1: Solute carrier family 22 member 1 (Rattus norvegicus, UniProt Q63089)
# T1 sequence (Q63089 whole entry): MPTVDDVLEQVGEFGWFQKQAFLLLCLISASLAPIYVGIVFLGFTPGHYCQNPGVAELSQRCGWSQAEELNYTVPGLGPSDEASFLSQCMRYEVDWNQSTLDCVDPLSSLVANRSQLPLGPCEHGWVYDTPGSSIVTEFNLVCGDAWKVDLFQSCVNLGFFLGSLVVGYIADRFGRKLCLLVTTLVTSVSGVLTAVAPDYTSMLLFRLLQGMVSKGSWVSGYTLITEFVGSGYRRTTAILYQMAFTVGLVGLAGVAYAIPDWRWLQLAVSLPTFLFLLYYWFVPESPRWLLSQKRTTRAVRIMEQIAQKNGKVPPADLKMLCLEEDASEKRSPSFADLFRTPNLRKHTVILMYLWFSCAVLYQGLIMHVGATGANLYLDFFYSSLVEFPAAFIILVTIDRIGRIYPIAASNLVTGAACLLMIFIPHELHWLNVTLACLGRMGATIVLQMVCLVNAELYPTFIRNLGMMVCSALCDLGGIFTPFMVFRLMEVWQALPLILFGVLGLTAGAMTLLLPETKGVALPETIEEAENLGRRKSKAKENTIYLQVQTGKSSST
# B1: Solute carrier family 22 member 1 (Rattus norvegicus) (protein)
# chain: T1 sequence (Q63089 whole entry)
# Key:
# [1] = target: T1, Solute carrier family 22 member 1; experiment: (§1) TP_TRANSPORTER: uptake (electrogenesis) in Xenopus laevis oocytes; assay type: functional, cell-based; details: oocyte
# [2] = target: T1, Solute carrier family 22 member 1; experiment: TP_TRANSPORTER: uptake in Xenopus laevis oocytes; assay type: functional, cell-based; details: oocyte
# [3] = substrate: CC(=O)OCC[N+](C)(C)C; experiment: as §1; assay type: functional, cell-based, Oocyte
# [4] = substrate: NCCc1c[nH]c2ccc(O)cc12; experiment: as §1; assay type: functional, cell-based, Oocyte
# [5] = substrate: NCCc1c[nH]cn1; experiment: cells, lysate or membranes named
# [6] = substrate: NCCc1ccc(O)c(O)c1; experiment: cells, lysate or membranes named
molecule,measurement,setting,value
NC[C@H](O)c1ccc(O)c(O)c1 [NOREPINEPHRINE],Activity,[1],substrate [+]
C=C[C@H]1C[N@@]2CC[C@H]1C[C@@H]2[C@@H](O)c1ccnc2ccc(OC)cc12 [QUINIDINE],Activity,[2],is not a substrate [-]
C=C[C@H]1C[N@@]2CC[C@H]1C[C@H]2[C@H](O)c1ccnc2ccc(OC)cc12 [QUININE],Activity,[2],is not a substrate [-]
B1,Km,[3],46.8 µM
same,Km,[4],37.6 µM
same,Km,[5],98.6 µM
same,Km,[6],19.4 µM and 51 µM

# From ChEMBL document CHEMBL2074147, “Monoamine neurotransmitter transport mediated by the polyspecific cation transporter rOCT1” (FEBS Lett, 1996)
